T1: PBX1-DBD (UniProt P40424 233-295)
T1 sequence: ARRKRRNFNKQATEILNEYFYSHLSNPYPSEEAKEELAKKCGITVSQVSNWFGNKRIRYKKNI

T2: PBX1 (recombinant, Origene) (UniProt P40424 1-430)
T2 sequence: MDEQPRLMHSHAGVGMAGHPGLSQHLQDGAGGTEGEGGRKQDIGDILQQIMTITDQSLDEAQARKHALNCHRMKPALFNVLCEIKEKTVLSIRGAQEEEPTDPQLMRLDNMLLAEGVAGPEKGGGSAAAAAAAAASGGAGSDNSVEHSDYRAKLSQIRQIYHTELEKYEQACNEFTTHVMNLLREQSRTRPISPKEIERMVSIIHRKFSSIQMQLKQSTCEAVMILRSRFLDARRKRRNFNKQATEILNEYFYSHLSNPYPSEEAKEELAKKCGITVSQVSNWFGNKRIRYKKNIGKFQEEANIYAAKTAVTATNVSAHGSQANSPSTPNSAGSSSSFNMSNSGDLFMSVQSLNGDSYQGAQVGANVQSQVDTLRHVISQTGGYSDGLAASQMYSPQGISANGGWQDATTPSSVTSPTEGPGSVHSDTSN


Tests used:
[1] = target: T1, PBX1-DBD; assay: SPR
[2] = target: T2, PBX1 (recombinant, Origene); assay: EMSA

Binder	Kd [1]	binding result [2]
PBX1 Probe (PBX1-CS-DNA-Biotin) (dsDNA) DNA 1: CGAAATTGATTGATGCTTTAATTGAC DNA 2: GTCAATTAAAGCATCAATCAATTTCG	0.8 nM	
PBX-MEIS Probe (dsDNA) DNA 1: CTGCGTTGATTGACAGCCGC DNA 2: GCGGCTGTCAATCAACGCAG		binds

From article PMC8591422
